One test addresses Neurocan (Homo sapiens, UniProt O14594). The test is described as follows: BbHtrA proteolysis assay, neurocan substrate. In kind it is biochemical. Particulars: SDS-PAGE, FIG. 5. The procedure: (§1) For proteolysis assays described in Examples herein, purified protein substrates (200-600 nM) and proteases (100-150 nM) were diluted in assay buffer (50 mM HEPES, pH 7.4, 5 mM CaCl2) and incubated overnight at 37° C. Samples were boiled for 4 minutes to inactivate the proteases. Proteoglycans were deglycosylated by overnight incubation at 37° C. with 0.01 U chondroitinase ABC (Seikagaku). Reactions were stopped by the addition of SDS/PAGE sample buffer, boiled for 4 minutes, and electrophoresed on pre-cast Tris-glycine gels (BioRad). Reaction products were visualized by silver staining.
(§2) Purified proteins were incubated with BbHtrA or BbHtrA^S226A as described herein. HtrA (also known as DegP) proteases belong to the family of serine proteases which contain a highly reactive serine residue in their active site. This serine (Ser210 in DegP) is part of the canonical His-Ser-Asp catalytic triad and mutation of the catalytic serine abolishes proteolytic activity (Skorko-Glonek et al., 1995). In BbHtrA, residues His119, Ser226 and Asp149 form the catalytic triad and mutation of serine 226 to alanine abolished proteolytic activity as expected (FIG. 5).
(§3) Reaction products were separated by SDS-PAGE and silver stained. Native collagen II and recombinant tenascin C were not degraded by BbHtrA indicating selectivity for proteoglycans, E-cadherin and fibronectin. […]

The next test relates to Biglycan. Kind of test: BbHtrA proteolysis assay, biglycan substrate. In kind it is biochemical, bovine, human. Particulars: SDS-PAGE, FIG. 5. The procedure:
as §1, §2, §3

In the next test the target is T1, Collagen type II (Homo sapiens, UniProt P02458).
T1 construct: Native collagen II and recombinant tenascin C were not degraded by BbHtrA; from tissue
T1 sequence (P02458 182-1241 limits assumed): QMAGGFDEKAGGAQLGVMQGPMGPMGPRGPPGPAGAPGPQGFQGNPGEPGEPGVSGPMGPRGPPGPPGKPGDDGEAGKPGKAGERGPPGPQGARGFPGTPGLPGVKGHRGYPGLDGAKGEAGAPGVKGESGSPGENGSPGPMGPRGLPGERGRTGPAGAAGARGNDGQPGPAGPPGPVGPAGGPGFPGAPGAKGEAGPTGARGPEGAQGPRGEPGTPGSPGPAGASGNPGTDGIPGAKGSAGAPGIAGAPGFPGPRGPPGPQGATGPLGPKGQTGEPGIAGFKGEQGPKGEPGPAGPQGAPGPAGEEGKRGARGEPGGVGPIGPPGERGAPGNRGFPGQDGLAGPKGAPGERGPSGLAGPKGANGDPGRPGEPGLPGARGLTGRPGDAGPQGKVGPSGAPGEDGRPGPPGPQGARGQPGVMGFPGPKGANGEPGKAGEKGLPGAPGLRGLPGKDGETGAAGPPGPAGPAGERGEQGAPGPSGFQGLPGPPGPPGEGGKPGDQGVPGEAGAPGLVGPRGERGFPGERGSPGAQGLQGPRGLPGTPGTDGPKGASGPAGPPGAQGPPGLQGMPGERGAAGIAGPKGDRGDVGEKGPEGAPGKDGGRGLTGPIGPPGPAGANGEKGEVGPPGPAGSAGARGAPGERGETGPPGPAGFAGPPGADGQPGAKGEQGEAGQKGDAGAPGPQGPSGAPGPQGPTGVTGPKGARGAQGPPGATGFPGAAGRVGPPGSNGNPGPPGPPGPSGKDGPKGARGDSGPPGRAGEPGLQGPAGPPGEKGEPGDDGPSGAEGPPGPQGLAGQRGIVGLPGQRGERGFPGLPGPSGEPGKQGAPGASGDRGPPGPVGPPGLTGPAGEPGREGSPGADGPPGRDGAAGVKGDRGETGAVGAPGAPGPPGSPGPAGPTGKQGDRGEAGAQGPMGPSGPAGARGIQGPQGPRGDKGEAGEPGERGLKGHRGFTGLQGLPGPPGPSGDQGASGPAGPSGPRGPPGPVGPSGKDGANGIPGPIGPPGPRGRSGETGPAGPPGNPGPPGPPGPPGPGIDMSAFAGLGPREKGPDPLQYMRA
The test is described as follows: BbHtrA proteolysis assay, collagen type II substrate. The settings on record: SDS-PAGE, silver stain. It is filed as biochemical. The procedure: as §1, §2, §3

The next test has as its system Decorin. Kind of test: BbHtrA proteolysis assay, decorin substrate. The settings on record: SDS-PAGE, FIG. 5. It is filed as biochemical, bovine, human. The procedure: as §1, §2, §3

Neurocan, sequence (O14594 23-1321): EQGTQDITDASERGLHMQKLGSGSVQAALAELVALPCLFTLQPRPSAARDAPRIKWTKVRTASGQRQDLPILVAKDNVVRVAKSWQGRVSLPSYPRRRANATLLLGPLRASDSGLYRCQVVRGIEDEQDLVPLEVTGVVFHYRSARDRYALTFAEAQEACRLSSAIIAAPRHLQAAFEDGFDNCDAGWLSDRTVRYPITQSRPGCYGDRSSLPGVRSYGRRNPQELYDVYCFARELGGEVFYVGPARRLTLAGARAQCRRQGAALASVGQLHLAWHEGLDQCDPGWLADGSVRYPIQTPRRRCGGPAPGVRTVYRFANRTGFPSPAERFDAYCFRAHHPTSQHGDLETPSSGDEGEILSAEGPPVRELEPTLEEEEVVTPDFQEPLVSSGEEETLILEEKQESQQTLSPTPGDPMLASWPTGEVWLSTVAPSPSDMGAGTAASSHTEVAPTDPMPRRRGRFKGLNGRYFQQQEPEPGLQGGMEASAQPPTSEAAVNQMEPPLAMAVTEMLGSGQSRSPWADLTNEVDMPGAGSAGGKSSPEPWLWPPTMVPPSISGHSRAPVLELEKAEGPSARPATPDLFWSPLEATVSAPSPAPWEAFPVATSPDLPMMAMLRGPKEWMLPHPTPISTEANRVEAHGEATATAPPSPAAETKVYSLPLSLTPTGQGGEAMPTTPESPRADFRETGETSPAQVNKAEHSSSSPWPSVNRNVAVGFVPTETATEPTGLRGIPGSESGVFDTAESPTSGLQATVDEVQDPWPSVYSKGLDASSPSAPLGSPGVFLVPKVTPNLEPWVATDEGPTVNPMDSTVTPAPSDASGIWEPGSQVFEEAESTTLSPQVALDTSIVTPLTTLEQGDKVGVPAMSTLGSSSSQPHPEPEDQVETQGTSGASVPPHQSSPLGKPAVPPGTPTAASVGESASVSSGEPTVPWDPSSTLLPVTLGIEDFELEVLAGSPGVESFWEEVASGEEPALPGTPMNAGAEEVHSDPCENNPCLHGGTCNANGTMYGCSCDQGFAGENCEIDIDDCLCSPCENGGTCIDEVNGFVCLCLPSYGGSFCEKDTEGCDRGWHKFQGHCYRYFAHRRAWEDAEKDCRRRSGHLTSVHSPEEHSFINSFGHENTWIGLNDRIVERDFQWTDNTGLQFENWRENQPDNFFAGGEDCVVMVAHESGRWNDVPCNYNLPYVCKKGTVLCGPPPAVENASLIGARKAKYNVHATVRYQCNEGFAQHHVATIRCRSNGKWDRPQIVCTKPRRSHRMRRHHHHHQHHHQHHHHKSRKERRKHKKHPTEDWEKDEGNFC

B1: BbHtrA: Recombinant wild type B. burgdorferi HtrA serine protease, mature protein amino acids 38-474, expressed in E. coli (SEQ ID NO:1, 9) (protein, listed as Borrelia burgdorferi)
chain: EEKDNTVRALQDSFREVSKKILPSSVEVHATGVIKQSFPIPFFFFDMPEFDSERKSNWAGSGVIIGRDSQKKSLFYVVTNSHVVDKATELEVVSYDKKKHKAKLIGKDEKKDIALISFESDDATIKVADLGDSDKLEIGDWVMAVGSPFQFSFTVTAGIVSGLQRSANPNLQSRNLFIQTDAAINRGNSGGPLVNIKGEVIGINAWIASNSGGNIGLGFAIPVNNIKSTVDFFLKGKKIESAWLGISFYPLKTRDSEVLKSLGVESNDVSAAIIASLYPGSPAVKSGLRAGDIIMKVNGVSMSVFQDVTSYISDFYAGEKVNVEILRGNVKKNIEIVLAVRPKDKELSSSKMLPGFVVYPLVEDIKAQLNLRNWIKGVVVDYIDKNLASNIKMKSGDVILSVNSKSVSNLREFYDALEVGKNTYKILRGNDSFKITF
Take B1: the Degradation of neurocan entry with Neurocan is given as “degrades”. The Degradation of biglycan entry with Biglycan was “degrades”. Further, in the test with Collagen type II, the “Degradation of native collagen II” value was “not degraded”. The Degradation of decorin result in the test with Decorin is listed as “degrades”.
